From publication doi:10.1101/2021.02.22.432310

Biological target: mGFP-UvrD (genomically integrated) (E. coli) (UniProt P03018)
Assay: single-molecule fluorescence microscopy

- stoichiometry N: 4
Substance: mGFP-UvrD (genomically integrated) (from UniProt P03018 1-720) (enzyme)
